This data set relates to Type I-F Csy (Cascade) complex with Cas2-3 (cas1, cas3, csy1-csy4), endogenous (Zymomonas mobilis ZM4). As to the kind of experiment: cell_activity.

For the sequence “AUCUUGACUCCCUCCAUGCACUUAAAAAAUCU / ATCTTGACTCCCTCCATGCACTTAAAAAATCT / AGATTTTTTAAGTGCATGGAGGGAGTCAAGAT [ZMO0038 His-tag crRNA spacer ; ZMO0038 start codon target]”, under “PAM 5'-TCC-3', His-tag insertion efficiency”, the activity stood at 100%.

“AUGCCGCUUUCGAUCAGGCCGCCGCCAAGAUU / ATGCCGCTTTCGATCAGGCCGCCGCCAAGATT / AATCTTGGCGGCGGCCTGATCGAAAGCGGCAT [ZMO0038 knockout crRNA spacer ; ZMO0038 target]”: for the setting “PAM 5'-CCC-3', knockout efficiency”, the activity came to 100%.
